Assay results as given in patent US20260116991A1 (HAINAN SIMCERE ZAIMING PHARMACEUTICAL, published 2026).

T1: polypeptide GC3pep of human GPC3 (Ala524-Lys563) (human)
T1 construct: Residues Ala524-Lys563 of human GPC3 (NCBI NM_004484.3); coated on the ELISA plate; also called membrane proximal polypeptide GC3pep
T1 peptide: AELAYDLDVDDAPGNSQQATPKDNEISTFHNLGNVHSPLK

T2: polypeptide GC3pep (human)
T2 construct: also called membrane proximal polypeptide GC3pep
T2 peptide: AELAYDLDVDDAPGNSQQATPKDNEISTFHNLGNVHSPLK

B1: F1.41.17 human-murine chimeric antibody (antibody, human IgG1, kappa, V domains shown)
VH: EVQLVESGGDSVKPGGSLKLSCAASGFTFSSYGMSWVRQTPDKRLEWVATINSGGSYTYYQDSVKGRFTISRDNAKNTLYLQMSSLKSEDTAIYYCVRHHYGSSYDYFDYWGQGTTLTVSS
VL: DIVMTQAAPSVPVMPGESVSISCRSSKSLLHSNGNTHLYWFLQRPGQSPQLLIYRMSNLASGVPDRFSGSGSGTAFTLRISRVEAEDVGVYYCMQHLEYPLTFGAGTKLELKR
notes: Chimeric
B2: F1.21.8 (antibody, human IgG1, kappa, V domains shown)
VH: EVQLQQSGPELVKPGASVKISCKTSGFLFTGHYMHWVKSSHGNILDWIGYIYPYNAISFYNQKFKGKATLTVDKSSNTAYMELRSLTSEDSAVYYCARGDYGNYVTAYWGQGTLVTVSA
VL: DVLMTQTPLSLPVSLGDQASISCRSSQSIVHSSGNTYLEWYLQKPGQSPKLLIYKVSNRFSGVPDRFSGSGSGTDFTLKISRVEAEDLGVYYCFQGSHLPWTFGGGTKLDIKR
notes: human-murine chimeric antibody
B3: F1.9.19 human-murine chimeric antibody (antibody, human IgG1, kappa, V domains shown)
VH: DVQLQESGPGLVKPSQSLSLTCSVTGYSITSGYYWNWIRQFPGNRLEWMAYISYDGINNYNPSLKNRISIARDTSTNQFFLKLNSVTSEDTATYYCATTTEVALFDHWGQGTTLTVSS
VL: DVLLTQTPLSLPVSLGDQASISCRSSQNIVHGNGNTYLEWFLQKPGQSPKLLIYKVSNRFSGVPDRFSGSGSGTDFTLKISRVEAEDLGLYYCFQASHVPWTFGGGTKLEIKR
notes: Chimeric
B4: F4.21.16 human-murine chimeric antibody (antibody, human IgG1, kappa, V domains shown)
VH: DVQLQESGPGLVKPSQSLSLTCSVTGYSITSGYYWNWIRQFPGNKLEWMGYISYDVTVNYNPSLKNRISITRDTSKNQFFLKLNSVTTEDTATYYCATITSVASMDHWGQGTSVTVSS
VL: DILMTQTPLSLPVSLGDQASISCRSSQNIVHRNGNTYLEWYLQKPGQSPKLLLYKVSNRFSGVPDRFSGSGSGTDFTLKISRVEAEDLGIYYCFQGSHFPFTFGSGTKLEIKR
notes: Chimeric
B5: F1.111.11 (antibody, human IgG1, kappa, V domains shown)
VH: EVQLQQSGPELVKPGASVKISCKASGYTFTDYYMNWVKQSHGKSLEWIGDIYPNNGDTTYNQRFKGKATLTVDKSSSTAYMELRSLASEDSAVYYCACPYNNPFGYWGQGTLVTVSA
VL: DVVMTQTPLSLPVSLGDQASISCRSSQSLVHSNGNTYLHWYLQKPGQSPKLLIYKVSNRFSGVPDRFSGSGSGTDFTLKISRVEAEDLGVYFCSQSTHVPWTFGGGTKLEIKR
notes: as for B2
B6: F4.26.1 (antibody, human IgG1, kappa, V domains shown)
VH: QVQLKQSGPGLVQPSQSLSITCTVSGFSLTSYGVHWVRQSPGKGLEWLGVIWSSGNTDYNAVLISRLSIKKDDSKSQVFFKMNSPQVDDSAIYYCGRNGGWLLRGFMDFWGQGTSVTVSS
VL: DVVMTQTPLSLPVSLGDQASISCRSSQSLLHSNGNTYLHWYLQRSGQSPNLLIYKVSNRFSGVPDRFSGGGSGTDFTLKISRVEAEDLGIYFCSQSTHVPWTFGGGTKLEIKR
notes: as for B2
B7: F1.2.14 (antibody, human IgG1, kappa, V domains shown)
VH: RVQLQQSGAELVKPGASVRMSCKASGYTFTAYSIEWMKQNLGKSLEWIGNFRPYNDDTKYNENFKGRATLTVEKSSATVYLELSRLTSDDSAVYYCARSGPTDYFDYWGQGTTLIVSS
VL: DIQMTQSPASLSASVGETVTITCRASDNIYSYLAWYQQKQGQSPQLLVYNAKTLAEGVPSRFSGSGSVTQFSLKIISLQPEDFGTYYCQHHFGTPRTFGGGTKLEIKR
notes: as for B2
B8: F1.145.22 (antibody, human IgG1, kappa, V domains shown)
VH: QVQLQQSGTDLARPGASVKLSCKASGYTFTSFGISWVKQRTGQGLEWIGEIYPRSGSPYYNEKFTGKATLTADKSSSTAYMELRSLTSEDSAVYFCAKDFGSSYVFDYWGQGTALTVSS
VL: DIQMTQSPASLSASVGETVTITCRASENIYSYLTWYQQKQGKSPQLLVYNAKTLAEGVPSRFSGSGSGTQFSLKINSLQPEDFGTYYCQHHYGTPPTFGTGTKLDLKR
notes: as for B2
B9: F1.118.4 human-murine chimeric antibody (antibody, human IgG1, kappa, V domains shown)
VH: QVQLQQSGAELAKPGASVKLSCKASGYSFTSYWIHWVKQRPGQGLEWIGYINPSSGYTKYNQKFKDKATLTADKSSSTAYMQLSSLTYEDSAVYYCARFGSSSFYFDYWGQGTTLTVSS
VL: DIVLTQSPASLAVSLGQRATISCRASQSVSSSSYSYMHWYQQKPGQPPKLLIKYASNLDSGVPARFSGSGSGTDFTLNIHPVEEEDTATYYCQHSWEIPAFGGGTKLEIKR
notes: Chimeric
B10: hAb007LH2L1b (antibody, human IgG1, V domains shown)
VH: EVQLVQSGAEVKKPGSSVKVSCKASGYTFTDYEMHWVRQAPGQGLEWMGTIDPETGNTAYNQKFKGRVTITADKSTSTAYMELSSLRSEDTAVYYCTRPYSLTYWGQGTLVTVSS
VL: DIVMTQTPLSLPVTPGEPASISCRSSQSFVHSNRDTYLQWYLQKPGQSPQLLIYKVSNRFSGVPDRFSGSGSGTDFTLKISRVEAEDVGVYYCFQGSHVPYTFGQGTKLEIK
notes: Humanized F3.81.19, H2+L1b
B11: hAb003LH2L1b (antibody, human IgG1, V domains shown)
VH: EVQLVQSGAEVKKPGSSVKVSCKASGYRFTDYEMHWVRQAPGQGLEWMGTIDPETGNTAYTQKFMDRVTITADKSTSTAYMELSSLRSEDTAVYYCTRGYSFTYWGQGTLVTVSS
VL: DIVMTQTPLSLPVTPGEPASISCRSSQNIVHSNRNTYLQWYLQKPGQSPQLLIFKVSNRFSGVPDRFSGSGSGTDFTLKISRVEAEDVGVYYCFQGSHVPFTFGQGTKLEIK
notes: Humanized F2.154.1, H2+L1b
B12: F1.153.1 human-murine chimeric antibody (antibody, human IgG1, kappa, V domains shown)
VH: QIQLVQSGPELKKPGETVKISCKASGYTFTTAGMQWVQKMPGKGFKWIGWINTHSGEPQYAEDFKGRFAFSLETSASTAYLQISNLKNEDTATYFCARSFYYHGSSFFYFDYWGQGTTLTVSS
VL: DIVMTQSQKFMSTTVGDRVSITCKASQNVGTAVAWYQQKPGQSPKLLIYSASNRYTGVPDRFTGSGSGADFTLTISNMQSEDLADYFCQQYSRYPLTFGAGTKLELKR
notes: Chimeric

What was measured:
[1] = target: T1, polypeptide GC3pep of human GPC3 …; experiment: ELISA, coated peptide
[2] = target: T3, murine GPC3-His protein (Sino Biological, Cat. No. 50989-M08B) (murine, UniProt Q8CFZ4 25-558); experiment: ELISA, coated antigen
T3 construct: Bought protein; also called murine GPC3 protein; mouse GPC3-his protein; not shown: His tag
T3 sequence (Q8CFZ4 25-558 limits assumed): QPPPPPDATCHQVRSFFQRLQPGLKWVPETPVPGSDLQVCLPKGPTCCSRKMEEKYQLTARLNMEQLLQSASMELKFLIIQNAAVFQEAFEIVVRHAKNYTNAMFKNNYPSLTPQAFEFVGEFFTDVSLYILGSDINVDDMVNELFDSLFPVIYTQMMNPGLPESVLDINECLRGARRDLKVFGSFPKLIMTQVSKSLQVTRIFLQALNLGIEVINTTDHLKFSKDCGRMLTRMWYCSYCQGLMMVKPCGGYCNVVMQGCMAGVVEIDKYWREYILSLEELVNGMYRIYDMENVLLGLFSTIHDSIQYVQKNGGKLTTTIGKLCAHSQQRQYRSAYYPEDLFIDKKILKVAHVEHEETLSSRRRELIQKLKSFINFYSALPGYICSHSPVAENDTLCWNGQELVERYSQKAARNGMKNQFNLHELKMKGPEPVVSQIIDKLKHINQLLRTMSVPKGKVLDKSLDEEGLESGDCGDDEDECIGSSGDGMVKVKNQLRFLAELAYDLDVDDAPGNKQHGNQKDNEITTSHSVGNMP

polypeptide GC3pep [3] = target: T2, polypeptide GC3pep; experiment: ELISA, GC3pep coated, antibody 10 nM;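 further: antibody bound to the coated peptide for 2 h at 37 °C, detected through an HRP-conjugated secondary antibody with TMB colour development stopped by acid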
polypeptide GC3pep [4] = target: T2, polypeptide GC3pep; experiment: ELISA, GC3pep coated, antibody 100 nM;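 further: detection with an HRP-conjugated secondary antibody and TMB substrate, color reaction stopped with HCl before absorbance reading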
polypeptide GC3pep [5] = target: T2, polypeptide GC3pep; experiment: ELISA, GC3pep coated, antibody 0.001 nM
polypeptide GC3pep [6] = target: T2, polypeptide GC3pep; experiment: ELISA, GC3pep coated, antibody 1 nM;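 further: bound antibody detected with an HRP-conjugated secondary antibody and TMB substrate, reaction stopped with HCl, after 2 h binding at 37 °C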
polypeptide GC3pep [7] = target: T2, polypeptide GC3pep; experiment: ELISA, GC3pep coated, antibody 0.1 nM;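 further: antibody allowed to bind the coated plate 2 h at 37 °C, then detected via HRP-conjugated secondary antibody and TMB development for 10 min, stopped with HCl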
polypeptide GC3pep [8] = target: T2, polypeptide GC3pep; experiment: ELISA, GC3pep coated, antibody 0.01 nM;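 further: bound antibody detected with an HRP-conjugated secondary antibody and TMB substrate, color reaction stopped with HCl before reading absorbance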
polypeptide GC3pep [9] = target: T2, polypeptide GC3pep; experiment: ELISA, GC3pep coated, antibody 0.0001 nM
murine GPC3-His protein = target: T4, murine GPC3-His protein (murine, UniProt Q8CFZ4 25-558, limits assumed); experiment: SPR, antibody captured on Protein A chip, murine GPC3-His injected
T4 construct: bought protein; also called murine GPC3 protein
T4 sequence (Q8CFZ4 25-558 limits assumed): as above

monkey GPC3-His protein [10] = target: T5, monkey GPC3-His protein (monkey); experiment: ELISA, monkey GPC3-His coated; antibody 0.11 nM
T5 construct: Bought protein; also called monkey GPC3 protein

monkey GPC3-His protein [11] = target: T5, monkey GPC3-His protein; experiment: ELISA, monkey GPC3-His coated; antibody 0.0008 nM
GPC3 on HepG2 cells = target: T6, GPC3 on HepG2 cells (human, UniProt P51654 25-554); experiment: FACS on HepG2 cells
T6 construct: whole, on cells; also called glypican-3

monkey GPC3-His protein [12] = target: T5, monkey GPC3-His protein; experiment: ELISA, monkey GPC3-His coated; antibody 0.53 nM
monkey GPC3-His protein [13] = target: T5, monkey GPC3-His protein; experiment: ELISA, monkey GPC3-His coated; antibody 0.02 nM
monkey GPC3-His protein [14] = target: T5, monkey GPC3-His protein; experiment: ELISA, monkey GPC3-His coated; antibody 13.33 nM
monkey GPC3-His protein [15] = target: T5, monkey GPC3-His protein; experiment: ELISA, monkey GPC3-His coated; antibody 0.004 nM
monkey GPC3-His protein [16] = target: T5, monkey GPC3-His protein; experiment: ELISA, monkey GPC3-His coated; antibody 66.66 nM
monkey GPC3-His protein [17] = target: T5, monkey GPC3-His protein; experiment: ELISA, monkey GPC3-His coated; antibody 2.67 nM

Binder | binding result [1] | binding result [2] | OD450 nm (polypeptide GC3pep [3]) [OD450 nm] | OD450 nm (polypeptide GC3pep [4]) [OD450 nm] | OD450 nm (polypeptide GC3pep [5]) [OD450 nm] | OD450 nm (polypeptide GC3pep [6]) [OD450 nm] | OD450 nm (polypeptide GC3pep [7]) [OD450 nm] | OD450 nm (polypeptide GC3pep [8]) [OD450 nm] | OD450 nm (polypeptide GC3pep [9]) [OD450 nm] | Kd (murine GPC3-His protein) [nM] | koff (murine GPC3-His protein) [s⁻¹] | kon (murine GPC3-His protein) [M⁻¹ s⁻¹] | other results
B1 | no binding (tested: 100 nM) | no binding (tested: 100 nM) | – | – | – | – | – | – | – | – | – | – | –
B2 | – | – | 0.05 | 0.05 | 0.05 | 0.05 | 0.05 | 0.05 | 0.05 | 0.0771 | 4.84e-05 | 628000 | –
B3 | no binding (tested: 100 nM) | no binding (tested: 100 nM) | – | – | – | – | – | – | – | – | – | – | –
B4 | no binding (tested: 100 nM) | no binding (tested: 100 nM) | – | – | – | – | – | – | – | – | – | – | –
B5 | – | – | 0.06 | 0.15 | 0.06 | 0.06 | 0.06 | 0.05 | 0.06 | 3.47 | 0.00045 | 129000 | –
B6 | – | – | 0.04 | 0.12 | 0.19 | 0.28 | 0.08 | 0.16 | 0.05 | 1.46 | 0.00072 | 492000 | –
B7 | – | – | 0.05 | 0.05 | 0.05 | 0.05 | 0.05 | 0.05 | 0.05 | 0.844 | 0.000147 | 174000 | –
B8 | – | – | 0.05 | 0.11 | 0.04 | 0.04 | 0.04 | 0.04 | 0.04 | 6.87 | 0.00173 | 251000 | –
B9 | no binding (tested: 100 nM) | no binding (tested: 100 nM) | – | – | – | – | – | – | – | – | – | – | –
B10 | – | – | – | – | – | – | – | – | – | – | – | – | OD450 nm (monkey GPC3-His protein [10]): 0.967; OD450 nm (monkey GPC3-His protein [11]): 0.08; EC50 (GPC3 on HepG2 cells): 9.53 nM; Max MFI (GPC3 on HepG2 cells): 5320; OD450 nm (monkey GPC3-His protein [12]): 2.09; OD450 nm (monkey GPC3-His protein [13]): 0.32; OD450 nm (monkey GPC3-His protein [14]): 2.56; OD450 nm (monkey GPC3-His protein [15]): 0.127; OD450 nm (monkey GPC3-His protein [16]): 2.61; OD450 nm (monkey GPC3-His protein [17]): 2.35
B11 | – | – | – | – | – | – | – | – | – | – | – | – | OD450 nm (monkey GPC3-His protein [10]): 1.96; OD450 nm (monkey GPC3-His protein [11]): 0.185; EC50 (GPC3 on HepG2 cells): 0.84 nM; Max MFI (GPC3 on HepG2 cells): 4620; OD450 nm (monkey GPC3-His protein [12]): 2.3; OD450 nm (monkey GPC3-His protein [13]): 1.1; OD450 nm (monkey GPC3-His protein [14]): 2.27; OD450 nm (monkey GPC3-His protein [15]): 0.386; OD450 nm (monkey GPC3-His protein [16]): 2.35; OD450 nm (monkey GPC3-His protein [17]): 2.36
B12 | no binding (tested: 100 nM) | no binding (tested: 100 nM) | – | – | – | – | – | – | – | – | – | – | –
